Reference: patent publication US10006009B2, “Codon-optimized gene for mutated shrimp luciferase and method for use thereof” (JNC CORPORATION, priority 2013, dated 2018)

B1: nanoKAZ gene: codon-optimized gene for the mutated catalytic 19 kDa domain of Oplophorus luciferase, SEQ ID NO: 2 (nucleic acid)
DNA: ATGGTCTTCACCCTGGAGGACTTCGTCGGCGACTGGAGACAGACCGCCGGCTACAACCTGGACCAGGTCCTGGAGCAGGGCGGCGTCAGCAGCCTGTTCCAGAACCTGGGCGTCAGCGTCACCCCCATCCAGAGAATCGTCCTTAGCGGCGAGAACGGCCTGAAGATCGACATCCACGTCATCATCCCCTACGAGGGCCTGAGCGGCGACCAGATGGGCCAGATCGAGAAGATCTTCAAGGTCGTCTACCCCGTCGACGACCACCACTTCAAGGTCATCCTGCACTACGGCACCCTGGTCATCGACGGCGTCACCCCCAACATGATCGACTACTTCGGTAGACCCTACGAGGGCATCGCCGTCTTCGACGGCAAGAAGATCACCGTCACCGGCACCCTGTGGAACGGCAACAAGATCATCGACGAGAGACTGATCAACCCCGACGGCAGCCTGCTGTTCAGAGTCACCATCAACGGCGTCACCGGCTGGAGACTGTGCGAGAGAATCCTGGCCTAA
modifications: synthetic DNA
B2: nanoKAZ: mutated catalytic 19 kDa domain protein of Oplophorus luciferase encoded by the codon-optimized gene (SEQ ID NO: 1) (protein)
chain: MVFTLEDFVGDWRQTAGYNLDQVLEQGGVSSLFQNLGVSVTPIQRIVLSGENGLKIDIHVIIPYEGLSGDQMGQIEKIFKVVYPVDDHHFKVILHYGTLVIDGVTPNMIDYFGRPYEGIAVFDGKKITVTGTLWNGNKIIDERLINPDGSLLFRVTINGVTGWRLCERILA

Test system: CHO-K1 cells
Assay: Comparison of expression between nanoKAZ and nanoLuc genes in CHO-K1 cells
Format: cell-based, Chinese hamster
From the text: In order to compare the gene expression efficiency between the nanoKAZ gene and the nanoLuc gene in the cultured cell system, an expression vector that was different only in the nanoKAZ gene sequence and the nanoLuc gene sequence was constructed. The expression vector constructed was transfected to CHO-K1 cells. Then, the expression level of luciferase activity was compared by the following procedure. In the nanoLuc gene, the gene sequence described in Hall et al. (2012) ACS Chem. Biol. […] was chemically synthesized and provided for use.
The vector was introduced into CHO-K1 cells by the method described in EXAMPLE 3. After incubation for 23 hours, the culture medium and the cell extract were recovered. The luminescence activity in the culture medium and the cells was measured by the method described in EXAMPLE 4, using coelenterazine as a light-emitting substrate.

Row | Molecule | expression relative to the nanoLuc gene (without secretory signal, in the culture medium and the cells) | luminescence activity relative to nanoLuc (with signal peptide, secreted into the culture medium)
1 | B1 | about 2 fold | 
2 | B2 |  | about 1.4 fold
